Read-outs that look alike come from different tables or passages of the source. Blank lines part the entries; values can stand above or below the molecule they belong to.
B5: SRP72^1–163 (human SRP72 N-terminal TPR domain, SRP68-binding domain) (domain or fragment, UniProt O76094 1-163, looked up)
chain: MASGGSGGVSVPALWSEVNRYGQNGDFTRALKTVNKILQINKDDVTALHCKVVCLIQNGSFKEALNVINTHTKVLANNSLSFEKAYCEYRLNRIENALKTIESANQQTDKLKELYGQVLYRLERYDECLAVYRDLVRNSQDDYDEERKTNLSAVVAAQSNWEK

Key:
[1] = Stability/solubility of SRP68 fragments and of SRP72 without cap; type: physicochemical; details: preliminary experiments
[2] = ref Iakhiaeva et al., 2009, cited from earlier work
SRP68 = test: Binding ability of SRP72 mutants with Flag-tagged SRP68 from HCT116 cell lysate; type: cell-based, human; details: HCT116 cells
SRP72 = test: Binding ability of Flag-tagged SRP68 mutants from HCT116 cell lysate; type: cell-based, human; details: HCT116 cells; Flag-tagged SRP68 mutant from cell lysate
AUC = target: the molecule itself; test: AUC
SEC = target: the molecule itself; test: SEC
[3] = Size-exclusion chromatography; type: physicochemical; details: Superdex 75 10/300 GL; 20 mM Tris-HCl pH 8.0, 500 mM NaCl
[4] = target: T1, SRP72 V136A/R137A double mutant (human, UniProt O76094 1-163, V136A | R137A); test: pull-down
T1 sequence (looked up): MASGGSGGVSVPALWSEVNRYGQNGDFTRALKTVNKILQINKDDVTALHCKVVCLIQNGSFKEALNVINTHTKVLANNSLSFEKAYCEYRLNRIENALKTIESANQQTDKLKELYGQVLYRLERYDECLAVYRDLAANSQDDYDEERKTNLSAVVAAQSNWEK

[5] = target: B5; test: MST

Molecule: 570–605: C-terminal SRP68 fragment from previous study (KQANLVHFPPGFQPIPCKPLFFDLALNHVAFPPLED; UniProt Q9UHB9 570-605, looked up, fragment) [reference compound]
degradation / solubility of fragment [1]: either prone to degradation or not soluble

B1: SRP68/72 complex: heterodimer of SRP68 and SRP72 (protein, UniProt Q9UHB9 1-627; O76094 2-671, looked up)
Signal recognition particle … 1: MAAEKQVPGGGGGGGSGGGGGSGGGGSGGGRGAGGEENKENERPSAGSKANKEFGDSLSLEILQIIKESQQQHGLRHGDFQRYRGYCSRRQRRLRKTLNFKMGNRHKFTGKKVTEELLTDNRYLLLVLMDAERAWSYAMQLKQEANTEPRKRFHLLSRLRKAVKHAEELERLCESNRVDAKTKLEAQAYTAYLSGMLRFEHQEWKAAIEAFNKCKTIYEKLASAFTEEQAVLYNQRVEEISPNIRYCAYNIGDQSAINELMQMRLRSGGTEGLLAEKLEALITQTRAKQAATMSEVEWRGRTVPVKIDKVRIFLLGLADNEAAIVQAESEETKERLFESMLSECRDAIQVVREELKPDQKQRDYILEGEPGKVSNLQYLHSYLTYIKLSTAIKRNENMAKGLQRALLQQQPEDDSKRSPRPQDLIRLYDIILQNLVELLQLPGLEEDKAFQKEIGLKTLVFKAYRCFFIAQSYVLVKKWSEALVLYDRVLKYANEVNSDAGAFKNSLKDLPDVQELITQVRSEKCSLQAAAILDANDAHQTETSSSQVKDNKPLVERFETFCLDPSLVTKQANLVHFPPGFQPIPCKPLFFDLALNHVAFPPLEDKLEQKTKSGLTGYIKGIFGFRS
Signal recognition particle … 2: ASGGSGGVSVPALWSEVNRYGQNGDFTRALKTVNKILQINKDDVTALHCKVVCLIQNGSFKEALNVINTHTKVLANNSLSFEKAYCEYRLNRIENALKTIESANQQTDKLKELYGQVLYRLERYDECLAVYRDLVRNSQDDYDEERKTNLSAVVAAQSNWEKVVPENLGLQEGTHELCYNTACALIGQGQLNQAMKILQKAEDLCRRSLSEDTDGTEEDPQAELAIIHGQMAYILQLQGRTEEALQLYNQIIKLKPTDVGLLAVIANNIITINKDQNVFDSKKKVKLTNAEGVEFKLSKKQLQAIEFNKALLAMYTNQAEQCRKISASLQSQSPEHLLPVLIQAAQLCREKQHTKAIELLQEFSDQHPENAAEIKLTMAQLKISQGNISKACLILRSIEELKHKPGMVSALVTMYSHEEDIDSAIEVFTQAIQWYQNHQPKSPAHLSLIREAANFKLKYGRKKEAISDLQQLWKQNPKDIHTLAQLISAYSLVDPEKAKALSKHLPSSDSMSLKVDVEALENSAGATYIRKKGGKVTGDSQPKEQGQGDLKKKKKKKKGKLPKNYDPKVTPDPERWLPMRERSYYRGRKKGKKKDQIGKGTQGATAGASSELDASKTVSSPPTSPRPGSAATVSASTSNIIPPRHQKPAGAPATKKKQQQKKKKGGKGGW
complex stability ([2]; 1 M NaCl): remains stable
complex stability ([2]; 2 M urea): stability in 2 M urea

B2: SRP72 Y86C: cancer-associated SRP72 mutant (protein, UniProt O76094 2-671, looked up, variant Y86C)
Signal recognition particle …: ASGGSGGVSVPALWSEVNRYGQNGDFTRALKTVNKILQINKDDVTALHCKVVCLIQNGSFKEALNVINTHTKVLANNSLSFEKACCEYRLNRIENALKTIESANQQTDKLKELYGQVLYRLERYDECLAVYRDLVRNSQDDYDEERKTNLSAVVAAQSNWEKVVPENLGLQEGTHELCYNTACALIGQGQLNQAMKILQKAEDLCRRSLSEDTDGTEEDPQAELAIIHGQMAYILQLQGRTEEALQLYNQIIKLKPTDVGLLAVIANNIITINKDQNVFDSKKKVKLTNAEGVEFKLSKKQLQAIEFNKALLAMYTNQAEQCRKISASLQSQSPEHLLPVLIQAAQLCREKQHTKAIELLQEFSDQHPENAAEIKLTMAQLKISQGNISKACLILRSIEELKHKPGMVSALVTMYSHEEDIDSAIEVFTQAIQWYQNHQPKSPAHLSLIREAANFKLKYGRKKEAISDLQQLWKQNPKDIHTLAQLISAYSLVDPEKAKALSKHLPSSDSMSLKVDVEALENSAGATYIRKKGGKVTGDSQPKEQGQGDLKKKKKKKKGKLPKNYDPKVTPDPERWLPMRERSYYRGRKKGKKKDQIGKGTQGATAGASSELDASKTVSSPPTSPRPGSAATVSASTSNIIPPRHQKPAGAPATKKKQQQKKKKGGKGGW
binding ability compared with wild-type (HCT116) (SRP68): severely compromised or abolished the binding ability

B3: SRP72 V53I: cancer-associated SRP72 mutant (protein, UniProt O76094 2-671, looked up, variant V53I)
Signal recognition particle …: ASGGSGGVSVPALWSEVNRYGQNGDFTRALKTVNKILQINKDDVTALHCKVICLIQNGSFKEALNVINTHTKVLANNSLSFEKAYCEYRLNRIENALKTIESANQQTDKLKELYGQVLYRLERYDECLAVYRDLVRNSQDDYDEERKTNLSAVVAAQSNWEKVVPENLGLQEGTHELCYNTACALIGQGQLNQAMKILQKAEDLCRRSLSEDTDGTEEDPQAELAIIHGQMAYILQLQGRTEEALQLYNQIIKLKPTDVGLLAVIANNIITINKDQNVFDSKKKVKLTNAEGVEFKLSKKQLQAIEFNKALLAMYTNQAEQCRKISASLQSQSPEHLLPVLIQAAQLCREKQHTKAIELLQEFSDQHPENAAEIKLTMAQLKISQGNISKACLILRSIEELKHKPGMVSALVTMYSHEEDIDSAIEVFTQAIQWYQNHQPKSPAHLSLIREAANFKLKYGRKKEAISDLQQLWKQNPKDIHTLAQLISAYSLVDPEKAKALSKHLPSSDSMSLKVDVEALENSAGATYIRKKGGKVTGDSQPKEQGQGDLKKKKKKKKGKLPKNYDPKVTPDPERWLPMRERSYYRGRKKGKKKDQIGKGTQGATAGASSELDASKTVSSPPTSPRPGSAATVSASTSNIIPPRHQKPAGAPATKKKQQQKKKKGGKGGW
binding ability compared with wild-type (HCT116) (SRP68): severely compromised or abolished the binding ability

B4: SRP68 F590L: cancer-associated SRP68 mutant (protein, UniProt Q9UHB9 1-627, looked up, variant F590L)
Signal recognition particle …: MAAEKQVPGGGGGGGSGGGGGSGGGGSGGGRGAGGEENKENERPSAGSKANKEFGDSLSLEILQIIKESQQQHGLRHGDFQRYRGYCSRRQRRLRKTLNFKMGNRHKFTGKKVTEELLTDNRYLLLVLMDAERAWSYAMQLKQEANTEPRKRFHLLSRLRKAVKHAEELERLCESNRVDAKTKLEAQAYTAYLSGMLRFEHQEWKAAIEAFNKCKTIYEKLASAFTEEQAVLYNQRVEEISPNIRYCAYNIGDQSAINELMQMRLRSGGTEGLLAEKLEALITQTRAKQAATMSEVEWRGRTVPVKIDKVRIFLLGLADNEAAIVQAESEETKERLFESMLSECRDAIQVVREELKPDQKQRDYILEGEPGKVSNLQYLHSYLTYIKLSTAIKRNENMAKGLQRALLQQQPEDDSKRSPRPQDLIRLYDIILQNLVELLQLPGLEEDKAFQKEIGLKTLVFKAYRCFFIAQSYVLVKKWSEALVLYDRVLKYANEVNSDAGAFKNSLKDLPDVQELITQVRSEKCSLQAAAILDANDAHQTETSSSQVKDNKPLVERFETFCLDPSLVTKQANLVHFPPGFQPIPCKPLLFDLALNHVAFPPLEDKLEQKTKSGLTGYIKGIFGFRS
binding ability compared with wild-type (HCT116) (SRP72): severely compromised or abolished the binding ability

Molecule: B5
stoichiometry N (AUC): 4
stoichiometry N (SEC): 2

B6: Y132A/R133A: double mutant of SRP72 in helix α8 (protein)
chain: MASGGSGGVSVPALWSEVNRYGQNGDFTRALKTVNKILQINKDDVTALHCKVVCLIQNGSFKEALNVINTHTKVLANNSLSFEKAYCEYRLNRIENALKTIESANQQTDKLKELYGQVLYRLERYDECLAVAADLVRNSQDDYDEERKTNLSAVVAAQSNWEK
modifications: left off: His6, N-terminal, state not stated
oligomeric state in solution (SEC) [3]: eluted as monomers

B7: apo-SRP72: human SRP72 N-terminal TPR domain, residues 1–163, apo form (protein)
chain: MASGGSGGVSVPALWSEVNRYGQNGDFTRALKTVNKILQINKDDVTALHCKVVCLIQNGSFKEALNVINTHTKVLANNSLSFEKAYCEYRLNRIENALKTIESANQQTDKLKELYGQVLYRLERYDECLAVYRDLVRNSQDDYDEERKTNLSAVVAAQSNWEK
modifications: left off: His6, N-terminal, cleaved
oligomeric state in solution (SEC) [3]: mainly as a dimer in solution

B8: V136A/R137A: monomeric double mutant of SRP72 in helix α8 (protein)
chain: MASGGSGGVSVPALWSEVNRYGQNGDFTRALKTVNKILQINKDDVTALHCKVVCLIQNGSFKEALNVINTHTKVLANNSLSFEKAYCEYRLNRIENALKTIESANQQTDKLKELYGQVLYRLERYDECLAVYRDLAANSQDDYDEERKTNLSAVVAAQSNWEK
modifications: left off: His6, N-terminal, state not stated
oligomeric state in solution (SEC) [3]: eluted as monomers

binding result [4]: binds
Kd [5]: 730 ± 200 nM
Molecule: PLFFDLALNHVAFPPLEDKLEQK (peptide, UniProt Q9UHB9 588-610, looked up) [GST-tagged SRP68 residues 588−610 (23-residue peptide of SRP68)]

B9: residues 530–620: C-terminal SRP68 fragment from previous study (protein, UniProt Q9UHB9 530-620, looked up, fragment)
chain: AAILDANDAHQTETSSSQVKDNKPLVERFETFCLDPSLVTKQANLVHFPPGFQPIPCKPLFFDLALNHVAFPPLEDKLEQKTKSGLTGYIK
degradation / solubility of fragment [1]: either prone to degradation or not soluble

Source: publication PMC5907831 (Journal of Molecular Cell Biology, 2017)
